This experiment has as its target T1, Flag-3C-Mcm10-V5 (S. cerevisiae, UniProt P32354 1-571).
T1 sequence: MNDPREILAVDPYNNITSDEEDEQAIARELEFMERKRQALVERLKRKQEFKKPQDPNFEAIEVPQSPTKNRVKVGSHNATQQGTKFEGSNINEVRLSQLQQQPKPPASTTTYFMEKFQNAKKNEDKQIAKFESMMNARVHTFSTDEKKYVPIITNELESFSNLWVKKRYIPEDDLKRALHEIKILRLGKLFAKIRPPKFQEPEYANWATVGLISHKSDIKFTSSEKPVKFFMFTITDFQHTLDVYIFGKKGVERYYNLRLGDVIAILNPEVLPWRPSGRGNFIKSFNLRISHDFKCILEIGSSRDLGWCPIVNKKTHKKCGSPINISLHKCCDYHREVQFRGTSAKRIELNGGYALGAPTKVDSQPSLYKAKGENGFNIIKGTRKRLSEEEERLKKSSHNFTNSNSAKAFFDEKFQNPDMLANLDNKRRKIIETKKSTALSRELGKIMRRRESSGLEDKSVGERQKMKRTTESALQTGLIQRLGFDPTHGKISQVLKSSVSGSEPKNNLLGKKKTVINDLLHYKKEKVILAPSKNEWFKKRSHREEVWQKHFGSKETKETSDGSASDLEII
Briefly: co-IP.

B1: Mcm2 1–483 (C-terminally 6xHis-tagged) (domain or fragment)
chain: MSDNRRRRREEDDSDSENELPPSSPQQHFRGGMNPVSSPIGSPDMINPEGDDNEVDDVPDIDEVEEQMNEVDLMDDNMYEDYAADHNRDRYDPDQVDDREQQELSLSERRRIDAQLNERDRLLRNVAYIDDEDEEQEGAAQLDEMGLPVQRRRRRRQYEDLENSDDDLLSDMDIDPLREELTLESLSNVKANSYSEWITQPNVSRTIARELKSFLLEYTDETGRSVYGARIRTLGEMNSESLEVNYRHLAESKAILALFLAKCPEEMLKIFDLVAMEATELHYPDYARIHSEIHVRISDFPTIYSLRELRESNLSSLVRVTGVVTRRTGVFPQLKYVKFNCLKCGSILGPFFQDSNEEIRISFCTNCKSKGPFRVNGEKTVYRNYQRVTLQEAPGTVPPGRLPRHREVILLADLVDVSKPGEEVEVTGIYKNNYDGNLNAKNGFPVFATIIEANSIKRREGNTANEGEEGLDVFSWTEEEERE
For the molecule B1, the binding result was “binds”.

B2: MBP-Mcm2 196–299 (domain or fragment)
chain: EWITQPNVSRTIARELKSFLLEYTDETGRSVYGARIRTLGEMNSESLEVNYRHLAESKAILALFLAKCPEEMLKIFDLVAMEATELHYPDYARIHSEIHVRISD
As for B2, the binding result is listed as “binds”.
